Test results taken from article PMC3166883.

Assays:
[1] = biological target: MART-1/Melan-A (anchor-modified decamer, modified at position 2) peptide on HLA-A*02:01 (human); experiment: SPR
[2] = biological target: MART-1/Melan-A peptide on HLA-A*02:01 (human); experiment: SPR

A Kd [1] of 29 µM was found for DMF4 in this work.
A Kd [2] of 40 µM and a Kd [1] of 6 µM were found for DMF5 in this work.
